Results as given in US20150152192A1 (SAMSUNG ELECTRONICS, published 2015).

T1: Ang2 with N467 mutated with alanine, tagged with FLAG (human, UniProt O15123 19-496, limits assumed)
T1 sequence: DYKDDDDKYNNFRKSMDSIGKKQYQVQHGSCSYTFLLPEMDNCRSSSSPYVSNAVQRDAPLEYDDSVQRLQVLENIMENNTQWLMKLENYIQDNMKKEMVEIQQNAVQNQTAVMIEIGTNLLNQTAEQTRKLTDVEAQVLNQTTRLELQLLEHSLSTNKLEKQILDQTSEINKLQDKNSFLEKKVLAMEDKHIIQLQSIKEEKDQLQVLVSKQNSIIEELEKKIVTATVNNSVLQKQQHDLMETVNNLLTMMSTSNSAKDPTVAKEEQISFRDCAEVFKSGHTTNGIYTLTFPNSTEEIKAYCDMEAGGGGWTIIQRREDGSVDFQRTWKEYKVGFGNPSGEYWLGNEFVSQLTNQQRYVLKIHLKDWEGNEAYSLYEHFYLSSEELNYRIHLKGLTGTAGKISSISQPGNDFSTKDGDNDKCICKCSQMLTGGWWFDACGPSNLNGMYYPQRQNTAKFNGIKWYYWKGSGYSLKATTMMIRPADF

T2: Ang2 with I434 mutated with alanine, tagged with FLAG (human, UniProt O15123 19-496, limits assumed)
T2 sequence: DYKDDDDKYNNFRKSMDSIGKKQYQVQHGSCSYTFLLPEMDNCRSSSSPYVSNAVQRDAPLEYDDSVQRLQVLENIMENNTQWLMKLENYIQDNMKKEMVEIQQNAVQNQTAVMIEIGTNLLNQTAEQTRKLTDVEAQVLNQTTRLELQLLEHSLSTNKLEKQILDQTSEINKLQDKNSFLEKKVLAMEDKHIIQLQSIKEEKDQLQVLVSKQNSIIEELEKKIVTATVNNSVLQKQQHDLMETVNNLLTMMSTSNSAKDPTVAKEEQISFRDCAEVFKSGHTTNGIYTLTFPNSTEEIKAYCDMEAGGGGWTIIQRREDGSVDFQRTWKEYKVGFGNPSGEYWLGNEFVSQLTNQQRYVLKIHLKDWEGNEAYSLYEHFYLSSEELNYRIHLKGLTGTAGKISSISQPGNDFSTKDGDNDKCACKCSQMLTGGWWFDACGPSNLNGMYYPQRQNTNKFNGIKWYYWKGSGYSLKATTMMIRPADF

T3: Ang2 with F469 mutated with alanine, tagged with FLAG (human, UniProt O15123 19-496, limits assumed)
T3 sequence: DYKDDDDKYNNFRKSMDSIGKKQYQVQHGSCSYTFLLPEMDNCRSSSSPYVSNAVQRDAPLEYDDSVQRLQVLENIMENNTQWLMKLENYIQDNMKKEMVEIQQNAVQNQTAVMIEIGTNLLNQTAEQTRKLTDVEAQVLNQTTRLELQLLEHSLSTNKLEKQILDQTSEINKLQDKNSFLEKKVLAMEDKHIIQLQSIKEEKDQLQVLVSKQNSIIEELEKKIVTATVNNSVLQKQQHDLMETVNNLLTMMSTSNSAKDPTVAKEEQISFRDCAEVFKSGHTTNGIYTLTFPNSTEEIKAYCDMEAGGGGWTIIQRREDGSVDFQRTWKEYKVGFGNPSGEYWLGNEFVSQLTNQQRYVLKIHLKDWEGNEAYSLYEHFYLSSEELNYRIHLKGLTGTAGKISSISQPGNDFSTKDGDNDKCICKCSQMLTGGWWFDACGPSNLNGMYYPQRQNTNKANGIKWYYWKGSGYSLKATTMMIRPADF

T4: Ang2 with Y460 mutated with alanine, tagged with FLAG (human, UniProt O15123 19-496, limits assumed)
T4 sequence: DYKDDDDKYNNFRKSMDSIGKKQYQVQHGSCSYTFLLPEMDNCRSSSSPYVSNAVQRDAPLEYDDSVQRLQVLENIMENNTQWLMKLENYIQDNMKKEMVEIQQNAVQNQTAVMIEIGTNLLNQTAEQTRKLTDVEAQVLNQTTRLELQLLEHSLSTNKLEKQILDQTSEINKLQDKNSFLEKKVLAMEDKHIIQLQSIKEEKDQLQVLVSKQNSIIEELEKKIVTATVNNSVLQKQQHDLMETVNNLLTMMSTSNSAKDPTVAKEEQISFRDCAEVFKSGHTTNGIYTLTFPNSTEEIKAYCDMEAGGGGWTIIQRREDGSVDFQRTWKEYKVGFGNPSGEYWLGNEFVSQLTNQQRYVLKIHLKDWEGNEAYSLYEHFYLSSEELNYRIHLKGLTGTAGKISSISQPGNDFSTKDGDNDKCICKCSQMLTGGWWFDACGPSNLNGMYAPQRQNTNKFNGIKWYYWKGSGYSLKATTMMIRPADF


Tests used:
Assay in all cases: ELISA, scFv coated, 250 ng FLAG-tagged Ang2 mutant, anti-FLAG-HRP
[1] = target: T1, Ang2 with N467 mutated with alanine, …
Experimental: (§1) A 96-well MaxiSorp™ flat-bottom plate (Nunc) was coated with 50 μl of the anti-Ang2 scFv selected above. After that, the plate was washed five times with 0.05% (v/v) Tween-20-containing PBS and then blocked with 1% (v/v) BSA-containing PBS at a room temperature for 2 hours. […] Thereafter, the plate was washed five times with 0.05% Tween-20-containing PBS and then, an HRP-conjugated anti-FLAG antibody (SIGMA) diluted in 1% (v/v) BSA-containing PBS at 1:5,000 ratio (v/v) was added in the amount of 50 μl to each well to react at a room temperature for 1 hour, followed by washing five times with 0.1% (v/v) Tween-20-containing PBS.
(§2) Finally, 100 μl of TMB substrate (cell signal) was added to each well of the plate to induce color development and then, the reaction was ceased by the addition of 50 μl of 5N H₂SO₄ solution and OD450 values were measured on a plate reader (Molecular Devices).

[2] = target: T2, Ang2 with I434 mutated with alanine, …
Experimental: as §1, §2

[3] = target: T3, Ang2 with F469 mutated with alanine, …
Experimental: as §1, §2

[4] = target: T4, Ang2 with Y460 mutated with alanine, …
Experimental: as §1, §2

Binder | Relative binding (%) with Mutant Ang2 compared to the binding with native Ang2 [1] | Relative binding (%) with Mutant Ang2 compared to the binding with native Ang2 [2] | Relative binding (%) with Mutant Ang2 compared to the binding with native Ang2 [3] | Relative binding (%) with Mutant Ang2 compared to the binding with native Ang2 [4]
SAIT-ANG-2-AB-2-E6 (scFv form) (scFv, V domains shown, scFv from a phage display library, partly purified from E. coli periplasm on Ni-NTA and detected with anti-HA) VH: EVQLLESGGGLVQTGGSLRLSCAASGFTFSDYAMSWVRQAPGKGLEWVSAIYPDSGNKYYADSVKGRFTISRDNSKNTLYLQMNSLRAEDTAVYYCARHSSDPKVKSGYYDDGMDVWGQGTLVAVSS VL: QSVLTQPPSASGTPGQRVTISCSGSSSNIGNNAVNWYQQLPGTAPKLLIYADSNRPSGVPDRFSGSKSGTSASLAISGLRSEDEADYYCGSWDYSLSGYVFGGGTKLTVLG | 72.1% | 5.3% | 112% | 40%
SAIT-ANG-2-AB-7-C9 (scFv form) (scFv, V domains shown, scFv from a phage display library) VH: EVQLLESGGGLVQPGGSLRLSCAASGFTFSNYAMSWVRQAPGKGLEWVSAISSGGGNIYYADSVKGRFTISRDNSKNTLYLQMNSLRAEDTAVYYCAKSGIQPSPPSMSSAYAMDVWGQGTLVTVSS VL: QSVLTQPPSASGTPGQRVTISCSGSSSNIGNNDVYWYQQLPGTAPKLLIYANSHRPSGVPDRFSGSKSGTSASLAISGLRSEDEADYYCGTWDYSLSGYVFGGGTKLTVLG | 86.6% | 8.7% | 89.4% | 78.1%
SAIT-ANG-2-AB-4-F5 (scFv form) (scFv, V domains shown, scFv from a phage display library) VH: EVQLLESGGGLVQPGGSLRLSCAASGFTFSDYDMSWVRQAPGKGLEWVSSISHGDSNKYYADSVKGRFTISRDNSKNTLYLQMNSLRAEDTAVYYCAKSSGIQESPPTYYYYGMDVWGQGTLVTVSS VL: QSVLTQPPSASGTPGQRVTISCSGSSSNIGSNAVNWYQQLPGTAPKLLIYADSNRPSGVPDRFSGSKSGTSASLAISGLRSEDEADYYCGSWDYSLSGYVFGGGTKLTVLG | 11.3% | 68.6% | 259% | 21.8%
SAIT-ANG-2-AB-4-C11 (scFv form) (scFv, V domains shown, scFv from a phage display library) VH: EVQLLESGGGLVQPGGSLRLSCAASGFTFSDYAMSWVRQAPGKGLEWVSSIYPDDGNTYYADSVKGRFTISRDNSKNTLYLQMNSLRAEDTAVYYCARHTSHHTSIDGYYYYGMDGWGQGTLVTVSS VL: QSVLTQPPSASGTPGQRVTISCTGSSSNIGNNDVSWYQQLPGTAPKLLIYSDSKRPSGVPDRFSGSKSGTSASLAISGLRSEDEADYYCGSWDYSLSGYVFGGGTKLTVLG | 81.7% | 7.2% | 102% | 74.3%
SAIT-ANG-2-AB-3-D3 (scFv form) (scFv, V domains shown, scFv from a phage display library) VH: EVQLLESGGGLVQPGGSLRLSCAASGFTFSDYDMSWVRQAPGKGLEWVSGISSDDGNTYYADSVKGRFTISRDNSKNTLYLQMNSLRAEDTAVYYCARPTIDKYTLRGYYSYGMDVWGQGTLVTVSS VL: QSVLTQPPSASGTPGQRVTISCTGSSSNIGSNYVSWYQQLPGTAPKLLIYSDNKRPSGVPDRFSGSKSGTSASLAISGLRSEDEADYYCGTWDDSLNGYVFGGGTKLTVLG | 90.9% | 93.4% | 96.4% | 95.1%
SAIT-ANG-2-AB-4-F11 (scFv form) (scFv, V domains shown, scFv from a phage display library) VH: EVQLLESGGGLVQTGGSLRLSCAASGFTFSDYAMSWVRQAPGKGLEWVSSIYPDDGNTYYADSVKGRFTISRDNSKNTLYLQMNSLRAEDTAVYYCAKHPVRLNLHPMYYYYGMDVWGQGTLVTVSS VL: QSVLTQPPSASGTPGQRVTISCTGSSSNIGNNAVSWYQQLPGTAPKLLIYSDSQRPSGVPDRFSGSKSGTSASLAISGLRSEDEADYYCATWDYSLSAYVFGGGTKLTVLG | 92% | 69% | 105% | 96.1%
SAIT-ANG-2-AB-8-A5 (scFv form) (scFv, V domains shown, scFv from a phage display library) VH: EVQLLESGGGLVQPGGSLRLSCAASGFTFSDYYMSWVRQAPGKGLEWVSGIYPSGGSTYYADSVKGRFTISRDNSKNTLYLQMNSLRAEDTAVYYCARDPSTLTYAGFDYWGQGTLVTVSS VL: QSVLTQPPSASGTPGQRVTISCSGSSSNIGNNYVTWYQQLPGTAPKLLIYADSHRPSGVPDRFSGSKSGTSASLAISGLRSEDEADYYCATWDYSLSGYVFGGGTKLTVLG | 90.7% | 4% | 102% | 91.6%
